In article PMC12208130 one finds Kd data, which are given here for 2 sequences.

In the data set the target is T1, PTK7 (receptor on HCT116 cells) (human (HCT116 colon cancer cells)) (UniProt Q13308).
T1 sequence: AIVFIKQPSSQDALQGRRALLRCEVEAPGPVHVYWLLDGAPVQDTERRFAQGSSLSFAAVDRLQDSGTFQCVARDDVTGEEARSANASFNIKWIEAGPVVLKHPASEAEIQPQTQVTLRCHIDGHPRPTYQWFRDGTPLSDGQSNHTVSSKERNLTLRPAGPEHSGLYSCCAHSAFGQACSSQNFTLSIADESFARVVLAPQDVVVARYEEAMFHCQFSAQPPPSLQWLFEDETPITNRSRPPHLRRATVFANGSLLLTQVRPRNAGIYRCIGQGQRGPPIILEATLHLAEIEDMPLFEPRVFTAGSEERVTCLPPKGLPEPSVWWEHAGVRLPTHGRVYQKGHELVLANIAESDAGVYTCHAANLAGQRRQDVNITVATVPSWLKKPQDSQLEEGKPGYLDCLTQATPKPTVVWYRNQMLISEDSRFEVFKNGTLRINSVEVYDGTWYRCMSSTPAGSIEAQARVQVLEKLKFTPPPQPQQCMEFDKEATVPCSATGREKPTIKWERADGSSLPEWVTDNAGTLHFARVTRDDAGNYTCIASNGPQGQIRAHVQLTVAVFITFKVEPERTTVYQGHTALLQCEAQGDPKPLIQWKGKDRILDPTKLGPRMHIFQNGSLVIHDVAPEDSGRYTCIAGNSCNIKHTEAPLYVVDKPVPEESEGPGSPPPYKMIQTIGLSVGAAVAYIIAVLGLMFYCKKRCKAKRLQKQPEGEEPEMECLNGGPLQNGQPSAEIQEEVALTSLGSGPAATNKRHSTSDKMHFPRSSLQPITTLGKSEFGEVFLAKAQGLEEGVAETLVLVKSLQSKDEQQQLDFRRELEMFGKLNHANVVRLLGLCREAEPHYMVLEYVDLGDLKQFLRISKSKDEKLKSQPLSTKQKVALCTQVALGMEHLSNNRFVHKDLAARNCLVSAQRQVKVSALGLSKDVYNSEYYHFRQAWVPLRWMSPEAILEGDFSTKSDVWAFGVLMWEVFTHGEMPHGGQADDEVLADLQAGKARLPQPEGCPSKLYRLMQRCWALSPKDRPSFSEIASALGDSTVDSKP
As to the kind of experiment: flow cytometry. The settings on record: 250 nM aptamer (varied for Kd), 30 min at 4 C, DPBS with ~5 mM MgCl2, 0.1 mg/mL yeast tRNA, 1 mg/mL BSA (a 2.25 g additive in the wash buffer is …).

“ATCTAACTGCTGCGCCGCCGGGAAAATACTGTACGGTTAGA [Sgc8-23A]”: the Kd (A23 = cordycepin (3'-deoxyadenosine), 2'-5' linkage) came out at 6.3 nM.
Sequence “ATCTAACTGCTGCGCCGCCGGGAAAATACTGTACGGTTAGA [Sgc8c (Sgc8-Cy5)]” returned a Kd of 5.92 nM.
